The labels stand for the following.
B1: Zinc finger protein ZIC 2, residues 250 to 295; numbered along this chain, O95409 (parent)
chain: QCIKQELICKWIDPEQLSNPKKSCNKTFSTMHELVTHVSVEHVGGP

± gives the uncertainty stated by the source.

Variants of B1 are the subject of the data set. The data set is described as follows: abundance fitness (aPCA) (normalised: wild type 0, dead -1); higher = more abundant; growth selection in yeast, the domain comes from the species named. The settings on record: Homo sapiens.
On to QCIKQELICKWIDPEQLSNPKKSCNKTFSEMHELVTHVSVEHVGGP [T30E], for which the abundance fitness is -0.316 ± 0.12.
With QCIKQELICKWIDPEQLSNPKKSCNKTFSNMHELVTHVSVEHVGGP [T30N], the abundance fitness amounted to 0.317 ± 0.12.
In the case of QCIKQELICKWIDPEQLSNPKKSCNKTFSFMHELVTHVSVEHVGGP [T30F], the abundance fitness is -0.254 ± 0.14.
The result for QCIKQELICKWIDPEQLSNPKKSCNKTFSRMHELVTHVSVEHVGGP [T30R] reads -0.418 ± 0.094; that for QCIKQELICKWIDPEQLSNPKKSCNKTFSIMHELVTHVSVEHVGGP [T30I], -0.315 ± 0.16; that for QCIKQELICKWIDPEQLSNPKKSCNKTFSGMHELVTHVSVEHVGGP [T30G], -0.178 ± 0.092.
The result for QCIKQELICKWIDPEQLSNPKKSCNKTFSDMHELVTHVSVEHVGGP [T30D] reads -0.072 ± 0.12; that for QCIKQELICKWIDPEQLSNPKKSCNKTFSPMHELVTHVSVEHVGGP [T30P], -0.923 ± 0.13.
Consider QCIKQELICKWIDPEQLSNPKKSCNKTFSHMHELVTHVSVEHVGGP [T30H], for which the abundance fitness is -0.596 ± 0.14.
Take QCIKQELICKWIDPEQLSNPKKSCNKTFSKMHELVTHVSVEHVGGP [T30K]: the abundance fitness was -0.389 ± 0.13.
In the case of QCIKQELICKWIDPEQLSNPKKSCNKTFSAMHELVTHVSVEHVGGP [T30A], the abundance fitness was 0.122 ± 0.096.
QCIKQELICKWIDPEQLSNPKKSCNKTFSQMHELVTHVSVEHVGGP [T30Q]: the abundance fitness was -0.159 ± 0.11.
On to QCIKQELICKWIDPEQLSNPKKSCNKTFSMMHELVTHVSVEHVGGP [T30M], for which the abundance fitness was -0.765 ± 0.15.
QCIKQELICKWIDPEQLSNPKKSCNKTFSSMHELVTHVSVEHVGGP [T30S]: the abundance fitness was -0.273 ± 0.096.
As for QCIKQELICKWIDPEQLSNPKKSCNKTWSTMHELVTHVSVEHVGGP [F28W], the abundance fitness is -0.968 ± 0.1.
As for QCIKQELICKWIDPEQLSNPKKSCNKTESTMHELVTHVSVEHVGGP [F28E], the abundance fitness is -0.547 ± 0.1.
QCIKQELICKWIDPEQLSNPKKSCNKTCSTMHELVTHVSVEHVGGP [F28C]: the abundance fitness was -0.725 ± 0.11.
On to QCIKQELICKWIDPEQLSNPKKSCNKTTSTMHELVTHVSVEHVGGP [F28T], for which the abundance fitness was -0.631 ± 0.1.
QCIKQELICKWIDPEQLSNPKKSCNKTASTMHELVTHVSVEHVGGP [F28A]: the abundance fitness is -0.811 ± 0.1.
For QCIKQELICKWIDPEQLSNPKKSCNKTLSTMHELVTHVSVEHVGGP [F28L], the abundance fitness is -0.668 ± 0.092.
For the variant QCIKQELICKWIDPEQLSNPKKSCNKTSSTMHELVTHVSVEHVGGP [F28S], the abundance fitness was -0.887 ± 0.097.
Regarding QCIKQELICKWIDPEQLSNPKKSCNKTVSTMHELVTHVSVEHVGGP [F28V], the abundance fitness is -0.724 ± 0.1.
Then QCIKQELICKWIDPEQLSNPKKSCNKTDSTMHELVTHVSVEHVGGP [F28D], with -0.914 ± 0.15; and QCIKQELICKWIDPEQLSNPKKSCNKTKSTMHELVTHVSVEHVGGP [F28K], with -0.471 ± 0.11.
For QCIKQELICKWIDPEQLSNPKKSCNKTGSTMHELVTHVSVEHVGGP [F28G], the abundance fitness is -0.598 ± 0.089.
Turning to QCIKQELICKWIDPEQLSNPKKSCNKTYSTMHELVTHVSVEHVGGP [F28Y], the abundance fitness is -0.724 ± 0.13.
As for QCIKQELICKWIDPEQLSNPKKSCNKTHSTMHELVTHVSVEHVGGP [F28H], the abundance fitness is -1.04 ± 0.15.
With QCIKQELICKWIDPEQLSNPKKSCNKTMSTMHELVTHVSVEHVGGP [F28M], the abundance fitness is -0.683 ± 0.11.
Regarding QCIKQELICKWIDPEQLSNPKKSCNKTRSTMHELVTHVSVEHVGGP [F28R], the abundance fitness is -0.84 ± 0.09.
Turning to QCIKQELICKWIDPEQLSNPKKSCNKTQSTMHELVTHVSVEHVGGP [F28Q], the abundance fitness is -0.705 ± 0.12.
As for QCIKQELICKWIDPEQLSNPKKSCPKTFSTMHELVTHVSVEHVGGP [N25P], the abundance fitness amounted to 0.199 ± 0.099.
As to QCIKQELICKWIDPEQLSNPKKSCIKTFSTMHELVTHVSVEHVGGP [N25I], the abundance fitness was -0.469 ± 0.15.
Regarding QCIKQELICKWIDPEQLSNPKKSCGKTFSTMHELVTHVSVEHVGGP [N25G], the abundance fitness came out at 0.3 ± 0.084.
On to QCIKQELICKWIDPEQLSNPKKSCVKTFSTMHELVTHVSVEHVGGP [N25V], for which the abundance fitness was -0.302 ± 0.088.
Take QCIKQELICKWIDPEQLSNPKKSCMKTFSTMHELVTHVSVEHVGGP [N25M]: the abundance fitness was -0.019 ± 0.1.
For QCIKQELICKWIDPEQLSNPKKSCDKTFSTMHELVTHVSVEHVGGP [N25D], the abundance fitness is -0.047 ± 0.11.
The result for QCIKQELICKWIDPEQLSNPKKSCWKTFSTMHELVTHVSVEHVGGP [N25W] reads -0.453 ± 0.099; that for QCIKQELICKWIDPEQLSNPKKSCHKTFSTMHELVTHVSVEHVGGP [N25H], 0.183 ± 0.12; that for QCIKQELICKWIDPEQLSNPKKSCLKTFSTMHELVTHVSVEHVGGP [N25L], 0.083 ± 0.088.
For QCIKQELICKWIDPEQLSNPKKSCRKTFSTMHELVTHVSVEHVGGP [N25R], the abundance fitness worked out at 0.281 ± 0.088.
As to QCIKQELICKWIDPEQLSNPKKSCFKTFSTMHELVTHVSVEHVGGP [N25F], the abundance fitness was -0.517 ± 0.13.
For the variant QCIKQELICKWIDPEQLSNPKKSCQKTFSTMHELVTHVSVEHVGGP [N25Q], the abundance fitness was found to be 0.17 ± 0.11.
The result for QCIKQELICKWIDPEQLSNPKKSCTKTFSTMHELVTHVSVEHVGGP [N25T] reads 0.072 ± 0.1.
Regarding QCIKQELICKWIDPEQLSNPKKSCKKTFSTMHELVTHVSVEHVGGP [N25K], the abundance fitness came out at 0.044 ± 0.11.
In the case of QCIKQELICKWIDPEQLSNPKKSCAKTFSTMHELVTHVSVEHVGGP [N25A], the abundance fitness is 0.507 ± 0.088.
For the variant QCIKQELICKWIDPEQLSNPKKSCYKTFSTMHELVTHVSVEHVGGP [N25Y], the abundance fitness was -0.33 ± 0.14.
Turning to QCIKQELICKWIDPEQLSNPKKSCNKTFSTMAELVTHVSVEHVGGP [H32A], the abundance fitness was determined as 0.14 ± 0.086.
In the case of QCIKQELICKWIDPEQLSNPKKSCNKTFSTMFELVTHVSVEHVGGP [H32F], the abundance fitness was 0.012 ± 0.11.
The result for QCIKQELICKWIDPEQLSNPKKSCNKTFSTMGELVTHVSVEHVGGP [H32G] reads -0.044 ± 0.086.
QCIKQELICKWIDPEQLSNPKKSCNKTFSTMDELVTHVSVEHVGGP [H32D]: the abundance fitness was found to be 0.092 ± 0.098.
The result for QCIKQELICKWIDPEQLSNPKKSCNKTFSTMLELVTHVSVEHVGGP [H32L] reads -0.471 ± 0.089; that for QCIKQELICKWIDPEQLSNPKKSCNKTFSTMMELVTHVSVEHVGGP [H32M], -0.263 ± 0.095.
The result for QCIKQELICKWIDPEQLSNPKKSCNKTFSTMKELVTHVSVEHVGGP [H32K] reads -0.011 ± 0.11.
Then QCIKQELICKWIDPEQLSNPKKSCNKTFSTMCELVTHVSVEHVGGP [H32C], with -0.172 ± 0.1; and QCIKQELICKWIDPEQLSNPKKSCNKTFSTMIELVTHVSVEHVGGP [H32I], with -0.211 ± 0.12.
As for QCIKQELICKWIDPEQLSNPKKSCNKTFSTMEELVTHVSVEHVGGP [H32E], the abundance fitness was 0.082 ± 0.096.

These data come from the Human Domainome abundance scans (Beltran et al. 2025).
